Experimental data: patent US20210253718A1, “FRIZZLED5 PROTEIN-BINDING AGENTS” (Modmab Therapeutics Corporation, priority 2016, published 2021)
Positions count from the first letter of the chain named.

T1: FZD8 CRD (Homo sapiens, UniProt Q9H461)
T1 construct: K31-D155; GPI anchor signal (C); expressed in transfected cells; host or cells: CHO cells, lentiviral pLenti-puro
T1 sequence (Q9H461 31-155): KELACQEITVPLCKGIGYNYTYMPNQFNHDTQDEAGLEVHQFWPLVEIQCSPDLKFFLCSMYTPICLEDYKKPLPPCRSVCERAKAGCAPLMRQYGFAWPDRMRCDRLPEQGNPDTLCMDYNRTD

T2: FZD5 CRD (Homo sapiens, UniProt Q13467)
T2 construct: K29-T156; GPI anchor signal (C); expressed in transfected cells; host or cells: CHO cells, lentiviral pLenti-puro
T2 sequence (Q13467 29-156): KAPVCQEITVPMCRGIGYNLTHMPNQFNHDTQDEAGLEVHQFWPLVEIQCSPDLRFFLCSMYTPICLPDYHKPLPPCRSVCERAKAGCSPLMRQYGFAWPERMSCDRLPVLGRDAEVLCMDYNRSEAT

B1: Fab-2928: anti-FZD5 Fab with antibody variable region Fv-2928; CDR SEQ ID NOs: 35, 36, 67, 105, 143, 175 (antibody, V domains shown)
VH: EVQLVESGGGLVQPGGSLRLSCAASGFNISYSSIHWVRQAPGKGLEWVASIYPSYSSTYYADSVKGRFTISADTSKNTAYLQMNSLRAEDTAVYYCARYYAMDYWGQGTLVTVSS
VL: DIQMTQSPSSLSASVGDRVTITCRASQSVSSAVAWYQQKPGKAPKLLIYSASSLYSGVPSRFSGSRSGTDFTLTISSLQPEDFATYYCQQAFYYPITFGQGTKVEIK
B2: Fab-2905: anti-FZD5 Fab with antibody variable region Fv-2905; CDR SEQ ID NOs: 35, 36, 44, 83, 120, 157 (antibody, V domains shown)
VH: EVQLVESGGGLVQPGGSLRLSCAASGFNLSYYYMHWVRQAPGKGLEWVASIYSSYSYTSYADSVKGRFTISADTSKNTAYLQMNSLRAEDTAVYYCARSGYALDYWGQGTLVTVSS
VL: DIQMTQSPSSLSASVGDRVTITCRASQSVSSAVAWYQQKPGKAPKLLIYSASSLYSGVPSRFSGSRSGTDFTLTISSLQPEDFATYYCQQSSWYYGYPFTFGQGTKVEIK
B3: Fab-2915: anti-FZD5 Fab with antibody variable region Fv-2915; CDR SEQ ID NOs: 35, 36, 54, 93, 130, 166 (antibody, V domains shown)
VH: EVQLVESGGGLVQPGGSLRLSCAASGFNIYYYSMHWVRQAPGKGLEWVASIYSSYGYTSYADSVKGRFTISADTSKNTAYLQMNSLRAEDTAVYYCARGYHYYPYYSGLDYWGQGTLVTVSS
VL: DIQMTQSPSSLSASVGDRVTITCRASQSVSSAVAWYQQKPGKAPKLLIYSASSLYSGVPSRFSGSRSGTDFTLTISSLQPEDFATYYCQQAYYHSLITFGQGTKVEIK
B4: Fab-2900: anti-FZD5 Fab with antibody variable region Fv-2900; CDR SEQ ID NOs: 35, 36, 39, 78, 115, 153 (antibody, V domains shown)
VH: EVQLVESGGGLVQPGGSLRLSCAASGFNLSSYYIHWVRQAPGKGLEWVASISSSSSSTSYADSVKGRFTISADTSKNTAYLQMNSLRAEDTAVYYCARGALDYWGQGTLVTVSS
VL: DIQMTQSPSSLSASVGDRVTITCRASQSVSSAVAWYQQKPGKAPKLLIYSASSLYSGVPSRFSGSRSGTDFTLTISSLQPEDFATYYCQQWYSGSSLFTFGQGTKVEIK
B5: Fab-2907: anti-FZD5 Fab with antibody variable region Fv-2907; CDR SEQ ID NOs: 35, 36, 46, 85, 122, 159 (antibody, V domains shown)
VH: EVQLVESGGGLVQPGGSLRLSCAASGFNIYSSYMHWVRQAPGKGLEWVASISSYSGSTYYADSVKGRFTISADTSKNTAYLQMNSLRAEDTAVYYCARSSWGAYIVSYGFDYWGQGTLVTVSS
VL: B4 VL with W91V, Y92G, S93Y, G94W, S95W, S96G, F98I
B6: Fab-2925: anti-FZD5 Fab with antibody variable region Fv-2925; CDR SEQ ID NOs: 35, 36, 64, 102, 140, 172 (antibody, V domains shown)
VH: EVQLVESGGGLVQPGGSLRLSCAASGFNLSYSSMHWVRQAPGKGLEWVASIYPSYGSTYYADSVKGRFTISADTSKNTAYLQMNSLRAEDTAVYYCARYGYFGLDYWGQGTLVTVSS
VL: B4 VL with W91A, Y92W, S93V, G94Y, S95A
B7: Fab-2909: anti-FZD5 Fab with antibody variable region Fv-2909; CDR SEQ ID NOs: 35, 36, 48, 87, 124, 161 (antibody, V domains shown)
VH: EVQLVESGGGLVQPGGSLRLSCAASGFNISSSYMHWVRQAPGKGLEWVASISSSSGYTSYADSVKGRFTISADTSKNTAYLQMNSLRAEDTAVYYCARTVRGSKKPYFSGWAMDYWGQGTLVTVSS
VL: B4 VL with W91S, Y92W, G94Y, S95H, S96Y, F98I
B8: Fab-2913: anti-FZD5 Fab with antibody variable region Fv-2913; CDR SEQ ID NOs: 35, 36, 52, 91, 128, 165 (antibody, V domains shown)
VH: B6 VH with L29I, M34I, S54Y, Y55S, G56S, Y59S, F102Y
VL: B4 VL with Y92G, S93V, G94S, S95H, S96Y

How the values were obtained:
Assay in all cases: Flow cytometry of anti-FZD5 Fab binding to CHO cells overexpressing Frizzled CRD
[1] = biological target: T3, FZD2 CRD (Homo sapiens, UniProt Q14332)
T3 construct: D35-P161; GPI anchor signal (C); expressed in transfected cells; host or cells: CHO cells, lentiviral pLenti-puro
Outline: (§1)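 CHO lines each expressing a different human Frizzled CRD, myc-tagged and GPI-anchored at the surface, stained with 200 nM Fab, then Alexa Fluor 488 F(ab′)2 secondary. Dead cells excluded by viability dye; anti-c-Myc staining served as expression control. Binding read by flow cytometry.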

[2] = biological target: T1, FZD8 CRD
Outline: as §1

[3] = biological target: T4, FZD7 CRD (Homo sapiens, UniProt O75084)
T4 construct: D45-S169; GPI anchor signal (C); expressed in transfected cells; host or cells: CHO cells, lentiviral pLenti-puro
Outline: as §1

[4] = biological target: T2, FZD5 CRD
Outline: as §1

Molecule	Median fluorescence, Frizzled CRD overexpressed on CHO cells: FZD2 [1]	Median fluorescence, Frizzled CRD overexpressed on CHO cells: FZD8 [2]	Median fluorescence, Frizzled CRD overexpressed on CHO cells: FZD7 [3]	Median fluorescence, Frizzled CRD overexpressed on CHO cells: FZD5 [4]
B1	14.59	7.57	–	–
B2	5.09	8.17	3.43	–
B3	–	10.00	–	27.63
B4	6.15	–	8.98	–
B5	4.07	11.76	2.62	32.78
B6	10.65	7.70	24.14	–
B7	–	7.43	–	–
B8	–	8.98	–	–
